Paper PMC2557045

How the values were obtained:
[1] = target: atToc159-A864R (expressed from CaMV35S::atTOC159-A864R in ppi2 plants, A864R:ppi2) (Arabidopsis thaliana) (UniProt O81283); test: cross-linking
[2] = substrate: Nc1nc2c(ncn2[C@@H]2O[C@H](COP(=O)(O)OP(=O)(O)OP(=O)(O)O)[C@@H](O)[C@H]2O)c(=O)[nH]1; test: GTP hydrolysis assay, immunoprecipitated protein on Sepharose beads; assay type: biochemical, Arabidopsis thaliana; details: antibody/protein A-Sepharose-bound receptor
[3] = substrate: Nc1nc2c(ncn2[C@@H]2O[C@H](COP(=O)(O)OP(=O)(O)OP(=O)(O)O)[C@@H](O)[C@H]2O)c(=O)[nH]1; test: GTP hydrolysis assay, purified soluble G-domain; assay type: biochemical, Arabidopsis thaliana

| fold of coimmunoprecipitated preSSu against wild-type atToc159 [1] | Molecule | Km [2] | kcat [2] | Km [3] | kcat [3] |
| --- | --- | --- | --- | --- | --- |
| 3 fold | preSSu ([35S]-labeled chloroplast preprotein) (natural protein) | – | – | – | – |
| – | atToc159 (full-length) (Arabidopsis thaliana) (protein) MDSKSVTPEPTNPFYASSGQSGKTYASVVAAAAAAAADKEDGGAVSSAKELDSSSEAVSGNSDKVGADDLSDSEKEKPNLVGDGKVSDEVDGSLKEDSTTPEATPKPEVVSGETIGVDDVSSLSPKPEAVSDGVGVVEENKKVKEDVEDIKDDGESKIENGSVDVDVKQASTDGESESKVKDVEEEDVGTKKDDEGESELGGKVDVDDKSDNVIEEEGVELTDKGDVIVNSSPVESVHVDVAKPGVVVVGDAEGSEELKINADAETLEVANKFDQIGDDDSGEFEPVSDKAIEEVEEKFTSESDSIADSSKLESVDTSAVEPEVVAAESGSEPKDVEKANGLEKGMTYAEVIKAASAVADNGTKEEESVLGGIVDDAEEGVKLNNKGDFVVDSSAIEAVNVDVAKPGVVVVGDVEVSEVLETDGNIPDVHNKFDPIGQGEGGEVELESDKATEEGGGKLVSEGDSMVDSSVVDSVDADINVAEPGVVVVGAAKEAVIKEDDKDDEVDKTISNIEEPDDLTAAYDGNFELAVKEISEAAKVEPDEPKVGVEVEELPVSESLKVGSVDAEEDSIPAAESQFEVRKVVEGDSAEEDENKLPVEDIVSSREFSFGGKEVDQEPSGEGVTRVDGSESEEETEEMIFGSSEAAKQFLAELEKASSGIEAHSDEANISNNMSDRIDGQIVTDSDEDVDTEDEGEEKMFDTAALAALLKAATGGGSSEGGNFTITSQDGTKLFSMDRPAGLSSSLRPLKPAAAPRANRSNIFSNSNVTMADETEINLSEEEKQKLEKLQSLRVKFLRLLQRLGHSAEDSIAAQVLYRLALLAGRQAGQLFSLDAAKKKAVESEAEGNEELIFSLNILVLGKAGVGKSATINSILGNQIASIDAFGLSTTSVREISGTVNGVKITFIDTPGLKSAAMDQSTNAKMLSSVKKVMKKCPPDIVLYVDRLDTQTRDLNNLPLLRTITASLGTSIWKNAIVTLTHAASAPPDGPSGTPLSYDVFVAQCSHIVQQSIGQAVGDLRLMNPSLMNPVSLVENHPLCRKNREGVKVLPNGQTWRSQLLLLCYSLKVLSETNSLLRPQEPLDHRKVFGFRVRSPPLPYLLSWLLQSRAHPKLPGDQGGDSVDSDIEIDDVSDSEQEDGEDDEYDQLPPFKPLRKTQLAKLSNEQRKAYFEEYDYRVKLLQKKQWREELKRMKEMKKNGKKLGESEFGYPGEEDDPENGAPAAVPVPLPDMVLPPSFDSDNSAYRYRYLEPTSQLLTRPVLDTHGWDHDCGYDGVNAEHSLALASRFPATATVQVTKDKKEFNIHLDSSVSAKHGENGSTMAGFDIQNVGKQLAYVVRGETKFKNLRKNKTTVGGSVTFLGENIATGVKLEDQIALGKRLVLVGSTGTMRSQGDSAYGANLEVRLREADFPIGQDQSSFGLSLVKWRGDLALGANLQSQVSVGRNSKIALRAGLNNKMSGQITVRTSSSDQLQIALTAILPIAMSIYKSIRPEATNDKYSMY | 3.2 ± 0.34 µM | 0.000233 ± 3.67e-05 s⁻¹ | – | – |
| – | atToc159 (full-length) (Arabidopsis thaliana; A864R) (protein) MDSKSVTPEPTNPFYASSGQSGKTYASVVAAAAAAAADKEDGGAVSSAKELDSSSEAVSGNSDKVGADDLSDSEKEKPNLVGDGKVSDEVDGSLKEDSTTPEATPKPEVVSGETIGVDDVSSLSPKPEAVSDGVGVVEENKKVKEDVEDIKDDGESKIENGSVDVDVKQASTDGESESKVKDVEEEDVGTKKDDEGESELGGKVDVDDKSDNVIEEEGVELTDKGDVIVNSSPVESVHVDVAKPGVVVVGDAEGSEELKINADAETLEVANKFDQIGDDDSGEFEPVSDKAIEEVEEKFTSESDSIADSSKLESVDTSAVEPEVVAAESGSEPKDVEKANGLEKGMTYAEVIKAASAVADNGTKEEESVLGGIVDDAEEGVKLNNKGDFVVDSSAIEAVNVDVAKPGVVVVGDVEVSEVLETDGNIPDVHNKFDPIGQGEGGEVELESDKATEEGGGKLVSEGDSMVDSSVVDSVDADINVAEPGVVVVGAAKEAVIKEDDKDDEVDKTISNIEEPDDLTAAYDGNFELAVKEISEAAKVEPDEPKVGVEVEELPVSESLKVGSVDAEEDSIPAAESQFEVRKVVEGDSAEEDENKLPVEDIVSSREFSFGGKEVDQEPSGEGVTRVDGSESEEETEEMIFGSSEAAKQFLAELEKASSGIEAHSDEANISNNMSDRIDGQIVTDSDEDVDTEDEGEEKMFDTAALAALLKAATGGGSSEGGNFTITSQDGTKLFSMDRPAGLSSSLRPLKPAAAPRANRSNIFSNSNVTMADETEINLSEEEKQKLEKLQSLRVKFLRLLQRLGHSAEDSIAAQVLYRLALLAGRQAGQLFSLDAAKKKAVESEAEGNEELIFSLNILVLGKRGVGKSATINSILGNQIASIDAFGLSTTSVREISGTVNGVKITFIDTPGLKSAAMDQSTNAKMLSSVKKVMKKCPPDIVLYVDRLDTQTRDLNNLPLLRTITASLGTSIWKNAIVTLTHAASAPPDGPSGTPLSYDVFVAQCSHIVQQSIGQAVGDLRLMNPSLMNPVSLVENHPLCRKNREGVKVLPNGQTWRSQLLLLCYSLKVLSETNSLLRPQEPLDHRKVFGFRVRSPPLPYLLSWLLQSRAHPKLPGDQGGDSVDSDIEIDDVSDSEQEDGEDDEYDQLPPFKPLRKTQLAKLSNEQRKAYFEEYDYRVKLLQKKQWREELKRMKEMKKNGKKLGESEFGYPGEEDDPENGAPAAVPVPLPDMVLPPSFDSDNSAYRYRYLEPTSQLLTRPVLDTHGWDHDCGYDGVNAEHSLALASRFPATATVQVTKDKKEFNIHLDSSVSAKHGENGSTMAGFDIQNVGKQLAYVVRGETKFKNLRKNKTTVGGSVTFLGENIATGVKLEDQIALGKRLVLVGSTGTMRSQGDSAYGANLEVRLREADFPIGQDQSSFGLSLVKWRGDLALGANLQSQVSVGRNSKIALRAGLNNKMSGQITVRTSSSDQLQIALTAILPIAMSIYKSIRPEATNDKYSMY | 1.9 ± 0.30 µM | 7e-05 ± 1.7e-06 s⁻¹ | – | – |
| – | atToc159 G-domain (atToc159G) (Arabidopsis thaliana) (protein) IFSLNILVLGKAGVGKSATINSILGNQIASIDAFGLSTTSVREISGTVNGVKITFIDTPGLKSAAMDQSTNAKMLSSVKKVMKKCPPDIVLYVDRLDTQTRDLNNLPLLRTITASLGTSIWKNAIVTLTHAASAPPDGPSGTPLSYDVFVAQCSHIVQQSIGQAVGDLRLMNPSLMNPVSLVENHPLCRKNREGVKVLPNGQTWRSQLLLLCYSLKVLSETNSLLRPQEPLDHRK | – | – | 9.0 ± 1.35 µM | 0.000317 ± 2.5e-05 s⁻¹ |
